Test in all cases: Kinase Profiling Assay
Holding throughout (type): biochemical
Details in all cases: 100 μM

Test [1] addresses Arg (h) (Homo sapiens, UniProt P42684). A digest of the protocol: (§1)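 Activity remaining relative to an uninhibited control was determined by scintillation counting of labeled substrate bound to a negatively charged filter. Radiolabeled phosphate came from ATP; the substrate carried positive charge. Duplicate measurements, within a 266-kinase human panel.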
The target of test [2] is Flt3 (h) (Homo sapiens, UniProt P36888). The method, boiled down:
as §1

The target in test [3] is T1, GRK7 (h) (Homo sapiens, UniProt Q8WTQ7).
T1 construct: purchased Millipore
T1 sequence (Q8WTQ7 1-553): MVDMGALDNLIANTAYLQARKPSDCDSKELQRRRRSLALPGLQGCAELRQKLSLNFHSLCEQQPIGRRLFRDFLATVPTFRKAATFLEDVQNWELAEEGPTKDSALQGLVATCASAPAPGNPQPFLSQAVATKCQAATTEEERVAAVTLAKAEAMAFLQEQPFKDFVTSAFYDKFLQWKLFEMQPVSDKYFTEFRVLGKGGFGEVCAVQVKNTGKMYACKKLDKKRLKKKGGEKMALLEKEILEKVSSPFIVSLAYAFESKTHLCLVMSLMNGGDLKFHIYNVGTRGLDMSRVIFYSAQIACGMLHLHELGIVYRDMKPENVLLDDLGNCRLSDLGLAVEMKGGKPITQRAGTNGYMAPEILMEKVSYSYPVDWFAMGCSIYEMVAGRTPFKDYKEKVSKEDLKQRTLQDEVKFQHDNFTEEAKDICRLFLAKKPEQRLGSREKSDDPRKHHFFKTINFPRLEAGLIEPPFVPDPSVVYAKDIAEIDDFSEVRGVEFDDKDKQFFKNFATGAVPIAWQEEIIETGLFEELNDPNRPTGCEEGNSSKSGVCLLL
The method, boiled down: as §1

Test [4] deals with T2, IRAK1 (h) (Homo sapiens, UniProt P51617).
T2 construct: purchased Millipore
The method, boiled down:
as §1

For test [5], the target named is MAPKAP-K2 (h) (Homo sapiens, UniProt P49137). The method, boiled down:
as §1

The target in test [6] is T3, Pim-2 (h) (Homo sapiens, UniProt Q9P1W9).
T3 construct: purchased Millipore
A digest of the protocol: as §1

Test [7] concerns the target RIPK2 (h) (Homo sapiens, UniProt O43353). The method, boiled down:
as §1

The target of test [8] is Ret (V804L) (h) (Homo sapiens, UniProt P07949, V804L). A digest of the protocol: as §1
Test [9] concerns the target Src(T341M) (h) (Homo sapiens, UniProt P12931, T341M). The method, boiled down: as §1
In test [10] the target is T4, ULK2 (h) (Homo sapiens, UniProt Q8IYT8).
T4 sequence (Q8IYT8 1-1036): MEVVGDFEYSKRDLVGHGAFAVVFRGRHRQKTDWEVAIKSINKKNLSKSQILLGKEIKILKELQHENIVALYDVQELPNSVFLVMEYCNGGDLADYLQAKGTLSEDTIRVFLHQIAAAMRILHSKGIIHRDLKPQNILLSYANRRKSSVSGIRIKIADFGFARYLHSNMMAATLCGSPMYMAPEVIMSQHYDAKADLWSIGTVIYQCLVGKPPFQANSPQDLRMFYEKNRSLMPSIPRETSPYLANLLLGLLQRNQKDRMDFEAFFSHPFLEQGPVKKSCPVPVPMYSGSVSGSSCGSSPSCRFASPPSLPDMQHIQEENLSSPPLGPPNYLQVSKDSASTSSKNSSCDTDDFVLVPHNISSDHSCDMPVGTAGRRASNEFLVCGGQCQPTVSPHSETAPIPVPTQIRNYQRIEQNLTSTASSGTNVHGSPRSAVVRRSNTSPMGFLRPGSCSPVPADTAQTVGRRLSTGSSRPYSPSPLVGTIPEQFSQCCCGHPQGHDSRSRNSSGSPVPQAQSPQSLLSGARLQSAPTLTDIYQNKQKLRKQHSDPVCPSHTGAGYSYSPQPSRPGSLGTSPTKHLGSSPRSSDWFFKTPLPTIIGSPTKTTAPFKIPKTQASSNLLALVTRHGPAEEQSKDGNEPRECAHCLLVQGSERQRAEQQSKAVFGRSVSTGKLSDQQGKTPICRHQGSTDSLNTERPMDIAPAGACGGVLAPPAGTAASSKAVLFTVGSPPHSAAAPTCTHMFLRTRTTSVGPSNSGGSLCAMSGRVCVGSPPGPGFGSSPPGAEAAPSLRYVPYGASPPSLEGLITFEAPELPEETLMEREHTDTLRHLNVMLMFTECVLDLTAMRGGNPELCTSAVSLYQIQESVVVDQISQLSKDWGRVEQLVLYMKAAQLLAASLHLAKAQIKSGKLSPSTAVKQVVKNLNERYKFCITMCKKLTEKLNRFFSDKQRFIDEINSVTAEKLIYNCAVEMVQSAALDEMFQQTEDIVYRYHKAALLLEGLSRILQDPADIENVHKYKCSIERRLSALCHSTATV
A digest of the protocol: as §1

Test [11] deals with T5, ULK3 (h) (Homo sapiens, UniProt Q6PHR2).
T5 sequence (Q6PHR2 1-472): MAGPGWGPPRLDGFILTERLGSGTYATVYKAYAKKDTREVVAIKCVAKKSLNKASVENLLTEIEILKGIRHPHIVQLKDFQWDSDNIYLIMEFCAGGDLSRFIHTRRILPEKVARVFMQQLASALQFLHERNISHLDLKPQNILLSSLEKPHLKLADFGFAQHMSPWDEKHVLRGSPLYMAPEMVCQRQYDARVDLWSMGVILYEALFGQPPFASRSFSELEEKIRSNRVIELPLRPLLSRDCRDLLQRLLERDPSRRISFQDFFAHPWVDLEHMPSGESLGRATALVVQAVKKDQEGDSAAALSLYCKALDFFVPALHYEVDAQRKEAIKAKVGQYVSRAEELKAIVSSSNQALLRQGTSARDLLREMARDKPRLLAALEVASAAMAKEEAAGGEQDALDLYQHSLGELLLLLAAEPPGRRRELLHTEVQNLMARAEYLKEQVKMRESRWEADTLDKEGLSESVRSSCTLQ
A digest of the protocol:
as §1

The target in test [12] is Met(Y1248H) (h) (Homo sapiens, UniProt P08581, Y1230H). A digest of the protocol:
as §1

The source of these data is patent US10500249B2, “Compositions and methods for preventing or treating diseases, conditions, or processes characterized by aberrant fibroblast proliferation and extracellular matrix deposition” (MOERAE MATRIX, INC., priority 2014, dated 2019).

Chain of Arg (h) (P42684 whole entry): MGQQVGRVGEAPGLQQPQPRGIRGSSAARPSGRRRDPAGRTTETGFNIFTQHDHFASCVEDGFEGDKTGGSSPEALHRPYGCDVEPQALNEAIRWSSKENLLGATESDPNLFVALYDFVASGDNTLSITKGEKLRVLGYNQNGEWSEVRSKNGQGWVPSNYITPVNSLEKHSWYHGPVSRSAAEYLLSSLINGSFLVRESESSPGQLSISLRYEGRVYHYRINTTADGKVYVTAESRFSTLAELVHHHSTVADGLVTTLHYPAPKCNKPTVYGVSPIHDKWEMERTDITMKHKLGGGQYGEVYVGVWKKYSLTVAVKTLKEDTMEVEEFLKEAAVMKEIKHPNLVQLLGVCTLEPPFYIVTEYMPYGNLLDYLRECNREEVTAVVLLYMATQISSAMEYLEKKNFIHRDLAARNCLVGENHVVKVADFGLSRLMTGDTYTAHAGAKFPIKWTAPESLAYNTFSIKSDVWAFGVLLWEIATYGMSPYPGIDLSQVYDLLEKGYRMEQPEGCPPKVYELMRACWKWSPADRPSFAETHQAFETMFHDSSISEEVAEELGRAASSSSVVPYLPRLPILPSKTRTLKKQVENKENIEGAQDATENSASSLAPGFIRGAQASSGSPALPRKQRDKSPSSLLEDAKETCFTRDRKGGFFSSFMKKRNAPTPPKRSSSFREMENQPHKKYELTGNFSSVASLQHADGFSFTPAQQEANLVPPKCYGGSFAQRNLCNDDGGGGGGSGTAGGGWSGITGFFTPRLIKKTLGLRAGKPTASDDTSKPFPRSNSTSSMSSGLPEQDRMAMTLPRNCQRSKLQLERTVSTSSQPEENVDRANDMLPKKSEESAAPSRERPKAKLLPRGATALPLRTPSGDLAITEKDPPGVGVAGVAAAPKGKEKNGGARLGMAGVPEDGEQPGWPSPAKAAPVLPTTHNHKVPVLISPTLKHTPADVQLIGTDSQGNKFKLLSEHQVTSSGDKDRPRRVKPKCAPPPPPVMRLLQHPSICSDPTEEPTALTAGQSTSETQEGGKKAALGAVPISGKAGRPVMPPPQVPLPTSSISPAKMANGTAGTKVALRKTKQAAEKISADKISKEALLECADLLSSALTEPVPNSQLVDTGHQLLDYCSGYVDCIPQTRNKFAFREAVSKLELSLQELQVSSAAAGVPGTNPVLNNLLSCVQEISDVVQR
T2 sequence (P51617 whole entry): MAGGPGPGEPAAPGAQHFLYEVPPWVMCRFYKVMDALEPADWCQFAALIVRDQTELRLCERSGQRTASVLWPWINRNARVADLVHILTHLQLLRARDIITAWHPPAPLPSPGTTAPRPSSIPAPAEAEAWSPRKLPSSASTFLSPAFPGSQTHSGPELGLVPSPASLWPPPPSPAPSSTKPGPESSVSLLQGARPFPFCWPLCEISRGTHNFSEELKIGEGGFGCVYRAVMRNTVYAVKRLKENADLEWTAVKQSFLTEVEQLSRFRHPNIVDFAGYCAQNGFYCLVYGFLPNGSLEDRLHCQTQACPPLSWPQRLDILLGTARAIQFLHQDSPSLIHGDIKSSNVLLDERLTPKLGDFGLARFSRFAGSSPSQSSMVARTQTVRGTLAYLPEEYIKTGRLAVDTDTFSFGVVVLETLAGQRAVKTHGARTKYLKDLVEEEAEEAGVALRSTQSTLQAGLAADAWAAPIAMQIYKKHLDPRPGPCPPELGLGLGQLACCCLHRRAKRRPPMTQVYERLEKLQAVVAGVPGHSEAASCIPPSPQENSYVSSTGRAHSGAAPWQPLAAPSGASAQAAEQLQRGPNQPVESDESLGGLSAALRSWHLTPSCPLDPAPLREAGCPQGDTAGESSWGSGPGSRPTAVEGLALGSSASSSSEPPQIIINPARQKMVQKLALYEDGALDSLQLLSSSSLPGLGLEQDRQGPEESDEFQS
T3 sequence (Q9P1W9 whole entry): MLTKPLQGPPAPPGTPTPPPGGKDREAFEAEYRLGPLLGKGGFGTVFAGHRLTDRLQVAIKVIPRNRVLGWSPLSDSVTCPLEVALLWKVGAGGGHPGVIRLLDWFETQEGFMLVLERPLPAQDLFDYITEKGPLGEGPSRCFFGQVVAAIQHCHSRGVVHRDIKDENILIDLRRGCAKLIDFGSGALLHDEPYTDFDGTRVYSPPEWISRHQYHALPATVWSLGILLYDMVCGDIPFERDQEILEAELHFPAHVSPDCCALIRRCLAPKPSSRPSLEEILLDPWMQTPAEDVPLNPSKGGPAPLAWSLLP
Chain of MAPKAP-K2 (h) (P49137 whole entry): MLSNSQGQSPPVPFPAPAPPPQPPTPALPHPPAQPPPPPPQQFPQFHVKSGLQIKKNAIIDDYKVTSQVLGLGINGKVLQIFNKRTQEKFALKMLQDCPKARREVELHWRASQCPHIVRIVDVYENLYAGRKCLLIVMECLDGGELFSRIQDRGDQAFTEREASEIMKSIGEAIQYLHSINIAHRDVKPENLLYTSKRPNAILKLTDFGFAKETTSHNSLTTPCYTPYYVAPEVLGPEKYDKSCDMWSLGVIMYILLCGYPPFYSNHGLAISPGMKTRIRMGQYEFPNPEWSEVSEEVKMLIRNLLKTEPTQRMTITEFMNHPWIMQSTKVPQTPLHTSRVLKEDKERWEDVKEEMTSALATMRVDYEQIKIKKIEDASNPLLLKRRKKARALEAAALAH
Chain of RIPK2 (h) (O43353 whole entry): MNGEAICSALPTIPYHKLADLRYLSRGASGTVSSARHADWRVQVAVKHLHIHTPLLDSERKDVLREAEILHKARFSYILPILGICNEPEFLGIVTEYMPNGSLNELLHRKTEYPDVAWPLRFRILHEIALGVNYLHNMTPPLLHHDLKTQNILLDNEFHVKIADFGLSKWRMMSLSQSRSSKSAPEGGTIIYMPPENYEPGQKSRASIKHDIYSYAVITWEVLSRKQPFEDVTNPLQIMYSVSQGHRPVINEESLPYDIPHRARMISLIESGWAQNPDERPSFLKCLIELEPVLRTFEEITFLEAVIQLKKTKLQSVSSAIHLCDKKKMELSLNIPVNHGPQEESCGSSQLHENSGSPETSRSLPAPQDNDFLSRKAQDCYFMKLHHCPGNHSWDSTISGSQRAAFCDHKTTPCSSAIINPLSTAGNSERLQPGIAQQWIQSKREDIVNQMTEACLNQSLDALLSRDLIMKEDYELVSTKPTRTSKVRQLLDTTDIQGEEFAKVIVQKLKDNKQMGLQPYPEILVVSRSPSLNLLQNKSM

Regarding FAKLAARLYRKALARQLGVAA [MMI-0300], the “% activity” value in test [1] is 72%; in [2], 84%; in [3], 122%; in test [4] it was 95%; in [5], 5%; in test [6], 76%. Further, the “% activity” value is given as 97% in test [7]; 79% in test [8]; 70% in [9]; 122% in test [10]; 167% in test [11].
As to KAFAKLAARLYRKALARQLGVAA [MMI-0400], the “% activity” value in [1] was 84%; in test [2], 18%; in test [3], 100%; in [4] it was 93%; in [5], 5%; in test [12], 63%. Moreover, the “% activity” value in test [6] came out at 92%; in test [7], 98%; in [8], 73%; in test [9], 76%; in test [10], 131%; in test [11] it was 147%.
Turning to “YARAAARQARAKALNRQLGVA (Mammalian) [MMI-0200]”, the “% activity” value in test [1] is given as 82%; in test [2], 99%; in [3], 124%; in test [4], 101%; in test [5] it was 35%; in test [12], 153%. In addition, the “% activity” value in test [6] was found to be 74%; in test [7], 98%; in [8], 100%; in test [9] it was 56%; in [10], 132%; in test [11], 164%.
As for “HRRIKAWLKKIKALARQLGVAA (Mammalian) [MMI-0500]”, the “% activity” value in [1] was 22%; in test [2], 17%; in [3], 93%; in [4], 5%; in test [5], 9%; in [12] it was 126%. For the same sequence, the “% activity” value in test [6] was found to be 46%; in test [7], 30%; in test [8], 20%; in test [9], 59%; in [10], 124%; in test [11], 177%.
